Measurements as given in patent US5981720A, “Human salivary proteins and fragments thereof having alpha-glucosidase inhibitory activity” (priority 1997, dated 1999).
Residues, ends and D or L forms follow the SMILES beside them. No end group written: not given here. *: point of attachment. NH(β-GlcNAc) = CC(=O)N[C@@H]1[C@@H](O)[C@H](O)[C@@H](CO)O[C@H]1N*; acetylglucosamine = N-acetylglucosamine

Target: yeast alpha-glucosidase (Saccharomyces cerevisiae, UniProt P53341)
Format: biochemical
Description: The enzyme of alpha-glucosidase activity is according to the procedure as described by Sigma Chemical Company, St. Louis, Mo. Routinely, the enzyme reaction mixture contains 10 mM maltose and 50 ul of purified alpha-glucosidase or 0.02 units of yeast alpha-glucosidase in a final volume of 60 ul of 25 mM sodium acetate buffer, pH 5.6. The reaction mixture is incubated at 37° C. for 60 minutes, and the production of glucose is determined by the glucose oxidase reagent (Worthington Statzyme Glucose 500) in accordance with recommendation of Worthington Biochemical Corporation.

Chain of yeast alpha-glucosidase (P53341 whole entry): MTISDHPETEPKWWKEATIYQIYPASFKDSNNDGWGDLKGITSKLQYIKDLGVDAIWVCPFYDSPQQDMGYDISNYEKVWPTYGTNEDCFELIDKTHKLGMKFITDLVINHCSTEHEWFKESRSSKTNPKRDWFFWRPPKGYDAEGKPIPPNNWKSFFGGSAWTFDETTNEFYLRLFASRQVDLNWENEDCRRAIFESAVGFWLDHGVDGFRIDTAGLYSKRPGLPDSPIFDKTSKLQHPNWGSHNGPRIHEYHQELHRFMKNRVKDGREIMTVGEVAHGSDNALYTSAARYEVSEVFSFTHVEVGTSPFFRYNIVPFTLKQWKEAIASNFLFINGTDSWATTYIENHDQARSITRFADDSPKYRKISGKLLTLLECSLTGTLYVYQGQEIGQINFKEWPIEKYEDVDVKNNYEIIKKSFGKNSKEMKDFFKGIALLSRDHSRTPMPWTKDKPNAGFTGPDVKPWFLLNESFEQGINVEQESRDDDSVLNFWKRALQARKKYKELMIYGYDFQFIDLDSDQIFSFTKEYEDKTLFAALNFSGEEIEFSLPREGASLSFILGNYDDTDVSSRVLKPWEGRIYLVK

## CC(=O)N[C@@H]1[C@@H](O)[C@H](O)[C@@H](CO)O[C@H]1NC(=O)C[C@H](NC(=O)CNC(=O)CN)C(=O)N[C@@H](CCCCN)C(=O)O [synthetic glycopeptide, Gylcyl-glycl-(NB-2-(acetylamino)-deoxy-2-B-pyranosyl)-asparaginyl-lysine] (H-GGD(NH(β-GlcNAc))K-OH)
10 ug of peptide, 50 mM acetate buffer pH 5.6, compared to control
  inhibitory effect on the alpha-glucosidase activity: about 90%

## acetoacetate glycopeptide complex: reaction product of the putative glycopeptide with acetoacetate reagent (GGN(acetylglucosamine)K; also: reacted with acetoacetate reagent (glycine residue))
0.02 units of yeast alpha-glucosidase
  inhibitory effect on alpha-glucosidase activity (in words): loss of inhibitory effect of the glycopeptide itself but is able to stimulate the alpha-glucosidase activity

## glycine-glycine-asparagine-pyridoxyl-lysine acetylglucosamine
Glycopeptide preincubated with pyridoxal 5-phosphate versus unmodified glycopeptide
  increase in inhibitory effect on alpha-glucosidase: 50%

## glycopeptide: bioactive fragment from Lys-C digestion of CON-1: glycine-glycine-asparagine-lysine, asparagine glycosylated by acetylglucosamine (GGN(acetylglucosamine)K)
Compared to the nontreated glycopeptide
  inhibition of alpha-glucosidase lost after N-acetylglucosaminidase treatment: about 20%
Incubation with N-acetylglucosaminidase
  change of inhibitory activity after removal of acetylglucosamine (in words): marked reduction in inhibitory activity
